Assay results from patent US20100009390A1, “MUTANT ANTIBODIES WITH HIGH AFFINITY FOR EGFR” (THE REGENTS OF THE UNIVERSITY OF CALIFORNIA, priority 2008, published 2010).
Entries after “also recorded” stand apart in the source; their conditions may differ. Where two headings read alike, the source gives them in different places.

How the values were obtained:
biotinylated EGFR-ECD = target: T1, biotinylated EGFR-ECD (Homo sapiens, UniProt P00533); test: Yeast-displayed scFv affinity for biotinylated EGFR-ECD by flow cytometry; type: binding; settings: concentrations as high as 8 μM
T1 construct: Recombinant EGFR-ECD was expressed in HEK293 cells; biotin (chemical label, NHS-sulfo-LC-biotin on amines); made in house; host or cells: HEK293 cells
Method: Generally, six to eight different concentrations of biotinylated EGFR were used to span a range of concentrations from ten times above to ten times below the KD. Incubation volumes, times and yeast numbers were chosen to ensure that the studies were done in at least fivefold antigen excess and that equilibrium had been achieved (Razai et al. (2005) J. Mol. Biol. 351: 158-169). For anti-EGFR scFv, […] in 50 μl were incubated with biotinylated EGFR-ECD for 1 h at room temperature. […] Only yeast displaying scFv (as determined by binding of SV5 mAb) were gated for affinity measurements.

[1] = target: T2, MDAMB468 cells expressing EGFR (Homo sapiens, UniProt P00533); test: Immunoliposome binding affinity for cells expressing EGFR (flow cytometry); settings: read-out: Apparent KD of immunoliposomes
T2 construct: Human breast cancer MDAMB468 cells expressing EGFR; endogenous in cells; host or cells: MDAMB468 breast carcinoma cells
Method: Human breast cancer MDAMB468 cells expressing EGFR were grown to 80-90% confluence in L15 medium supplemented with 10% FBS and harvested by trypsinization. ILs labeled with DiIC18(3)-DS were incubated overnight with 10^4 cells at concentrations of IL ranging from 0.31-2.5 nM. The concentration of IL was converted from the concentration of phospholipid on the basis of the approximate number of phospholipid molecules per liposome (80,000). Cell binding was performed at 4° C. in FACS buffer in adequate volume to ensure a fivefold excess of ILs and that the reaction had come to equilibrium. After two washes with 200 μl of FACS buffer, the amount of cell-bound ILs was quantified by flow cytometry in a FACS LSRII (Becton Dickinson). Data analysis was the same as for the measurement of scFv KD.

[2] = system: EGFR-over-expressing MDAMB468 cells; test: Internalization/uptake of anti-EGFR immunoliposomes (microscopy, flow cytometry); type: cell-based, Human
Method: (§1) scFv-mediated internalization of fluorescent immunoliposomes was analyzed and quantified by microscopy and flow cytometry. C10 scFv fragments were inserted into liposomes at ratios of 5, 10, 15, 30 and 60 μg scFv/μmol phospholipid (Mamot et al. (2003) Cancer Res. 63: 3154-3161). scFv densities of 16, 32, 48, 96 and 192 scFv/liposome were calculated on the basis of the molecular mass of scFv (26 kDa) and the approximate number of phospholipid molecules/liposome (80,000). The conjugation technology for scFv to Mal-PEG-DSPE is remarkably reproducible with an efficiency of 77.3(±3.1) % (range 75-82% over six batches) (Nellis et al. (2005) Biotechnol. Prog. 21: 205-220). […] For microscopy studies, 150,000 cells were incubated with 50 μM PL of untargeted and EGFR-targeted ILs labeled with DiIC18(3)-DS in a 12-well plate for 2 h at 37° C., followed by washing with PBS and further incubation at 37° C. for 2 h. The cells were then analyzed by using an inverted fluorescence microscope (Nikon Eclipse, TE300) with a 540/25 nm band-pass filter for excitation and a long-pass filter at 565 nm for emission. For quantitative uptake of immunoliposomes, 250,000 cells were incubated with EGFR-targeted ILs labeled with ADS645 in a six-well plate for 2 h at 37° C., washed with PBS, removed in trypsin solution and fluorescence quantified with a FACSAria instrument (Beckton Dickinson). To determine the effect of EGF competition on internalization of EGFR-targeted ILs, IL internalization was quantified as described above, except that 50 μM targeted ILs and cells were incubated with EGF concentrations ranging from 0.2-25 nM. ANOVA (analysis of variance) was used to analyze the statistical differences of the quantified uptake.

MDAMB231 cells = test: Uptake of EGFR immunoliposomes into cells of lower EGFR density; type: cell-based, human; settings: all scFv densities studied; 480,000 EGFR/cell
Method: as §1
To determine the impact of receptor density on IL uptake, we measured the uptake of the different ILs into MDAMB231 cells which express 480,000 EGFR/cell as determined by flow cytometry using Quantum Simply Cellular anti-Human IgG beads (Bangs Laboratories Inc.). […] Uptake into MDAMB231 cells increased with increasing scFv density, reaching a plateau at an IL scFv density of 74 scFv/IL for P2/4 scFv and at 37 scFv/IL for 2224 scFv (FIG. 6C).

A431 cells = target: T3, A431 cells (Homo sapiens, UniProt P00533); test: Binding specificity of scFv by flow cytometry; settings: A431, 1×10^6-3×10^6 EGFR/cell
T3 construct: endogenous in cells; host or cells: A431 cells

MDAMB468 cells = test: Binding specificity of scFv by flow cytometry; parameters: species or system Human; settings: MDAMB468, 1×10^6-3×10^6 EGFR/cell
MDAMB453 cells = test: Binding specificity of scFv by flow cytometry; settings: MDAMB453, only 10^4 EGFR/cell
[3] = target: T4, EGFR (vIII) stably transfected NR6M cells (Homo sapiens, UniProt P00533, DELINS30-297G); test: Binding specificity of scFv by flow cytometry
T4 construct: expressed in transfected cells; host or cells: NR6M cells (NR6 stably transfected with EGFR (vIII)), gift of Dr Daryl D Bigner
Method: (§2) The binding of C10 scFv and C10 mutants to EGFR (vIII) stably transfected NR6M cells and parental NR6 cells was also measured.

parental NR6 cells = test: Binding specificity of scFv by flow cytometry; settings: NR6, EGFR negative
Method: as §2

[4] = target: T5, EGFR-expressing A431 cells (Homo sapiens, UniProt P00533); settings: Heitner et al. (2001); read-out: KD of C10 scFv previously measured on EGFR-expressing tumor cells; cited from earlier work
T5 construct: host or cells: A431 cells

B1: C10: parental (wild-type) internalizing anti-EGFR human scFv from a non-immune phage antibody library; SEQ ID NO:1 (protein)
scFv: EVQLVQSGAEVKKPGSSVKVSCKASGGTFSSYAISWVRQAPGQGLEWMGGIIPIFGTANYAQKFQGRVTITADESTSTAYMELSSLRSEDTAVYYCAREEGPYCSSTSCYGAFDIWGQGTLVTVSS
modifications: Variable chain of single chain antibody.
binding of yeast-displayed scFv to biotinylated recombinant EGFR (biotinylated EGFR-ECD): minimal binding
Kd ([1]; 74 scFv/liposome): 1.75 nM
Kd ([1]; 148 scFv/liposome): 0.36 nM
endocytosis of ILs by fluorescence microscopy ([2]; 74 scFv/liposome, MDAMB468): endocytosed efficiently
IL uptake compared to ILs from higher affinity scFv ([2]; scFv densities of 74 scFv/liposome or less): less uptake
IL uptake into MDAMB231 cells compared to A431 cells (MDAMB231 cells): significantly less uptake
scFv binding/staining of cells (A431 cells): stained
scFv binding/staining of cells (MDAMB468 cells): stained
scFv binding/staining of cells (MDAMB453 cells): did not stain
scFv binding/staining of cells [3]: strong staining; also recorded: stained
scFv binding/staining of cells (parental NR6 cells): minimal binding; also recorded: did not stain
Kd [4]: 217 nM
